The results in this text go back to paper doi:10.1101/2022.05.04.490607 (bioRxiv, 2022).

For experiment [1], the target named is T1, recombinant 14-3-3ζ, P63104.
T1 chain: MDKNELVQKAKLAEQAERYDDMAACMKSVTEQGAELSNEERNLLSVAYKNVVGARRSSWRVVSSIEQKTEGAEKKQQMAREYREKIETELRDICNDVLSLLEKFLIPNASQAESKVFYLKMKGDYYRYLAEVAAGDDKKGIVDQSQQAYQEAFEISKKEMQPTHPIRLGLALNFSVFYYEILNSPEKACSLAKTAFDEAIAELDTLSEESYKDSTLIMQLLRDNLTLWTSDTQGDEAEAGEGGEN
The experiment is described as follows: cryo-EM structure. The following applies: remark: other sources report otherwise.

The target of experiment [2] is HSP90 beta (full-length human, N-terminal HA tag) (human, UniProt P08238 1-724, phosphorylated (sites in Table S1)). Nature of the experiment: SEC-MALS.
HSP90 beta (full-length human, N-terminal HA tag), sequence (P08238 whole entry): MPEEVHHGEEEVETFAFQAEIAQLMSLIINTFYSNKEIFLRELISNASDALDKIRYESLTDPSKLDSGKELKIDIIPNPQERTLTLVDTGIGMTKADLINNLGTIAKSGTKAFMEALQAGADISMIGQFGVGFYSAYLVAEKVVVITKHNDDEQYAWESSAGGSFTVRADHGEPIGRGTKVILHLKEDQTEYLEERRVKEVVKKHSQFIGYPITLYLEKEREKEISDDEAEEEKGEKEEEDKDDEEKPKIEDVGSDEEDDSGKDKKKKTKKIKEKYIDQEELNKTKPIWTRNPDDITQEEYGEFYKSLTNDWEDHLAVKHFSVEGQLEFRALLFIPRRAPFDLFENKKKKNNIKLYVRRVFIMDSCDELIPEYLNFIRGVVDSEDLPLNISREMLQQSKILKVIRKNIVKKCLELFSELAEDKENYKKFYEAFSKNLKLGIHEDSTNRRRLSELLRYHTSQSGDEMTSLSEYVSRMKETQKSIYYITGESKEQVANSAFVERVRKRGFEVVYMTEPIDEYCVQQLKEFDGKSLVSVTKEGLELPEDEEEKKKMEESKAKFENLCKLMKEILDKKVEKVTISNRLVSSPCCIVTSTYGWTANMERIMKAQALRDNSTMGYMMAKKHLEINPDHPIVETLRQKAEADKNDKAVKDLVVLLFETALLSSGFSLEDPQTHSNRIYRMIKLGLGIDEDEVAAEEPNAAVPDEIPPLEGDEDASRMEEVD

B1: recombinant 14-3-3ζ, P63104 1-245 (natural protein)
chain: MDKNELVQKAKLAEQAERYDDMAACMKSVTEQGAELSNEERNLLSVAYKNVVGARRSSWRVVSSIEQKTEGAEKKQQMAREYREKIETELRDICNDVLSLLEKFLIPNASQAESKVFYLKMKGDYYRYLAEVAAGDDKKGIVDQSQQAYQEAFEISKKEMQPTHPIRLGLALNFSVFYYEILNSPEKACSLAKTAFDEAIAELDTLSEESYKDSTLIMQLLRDNLTLWTSDTQGDEAEAGEGGEN
As for B1, the stoichiometry N (usually a count of units in the complex or per binding partner) in experiment [1] worked out at 2.

B2: CDC37 (full-length human, C-terminal Myc-DDK tag) (natural protein)
chain: MVDYSVWDHIEVSDDEDETHPNIDTASLFRWRHQARVERMEQFQKEKEELDRGCRECKRKVAECQRKLKELEVAEGGKAELERLQAEAQQLRKEERSWEQKLEEMRKKEKSMPWNVDTLSKDGFSKSMVNTKPEKTEEDSEEVREQKHKTFVEKYEKQIKHFGMLRRWDDSQKYLSDNVHLVCEETANYLVIWCIDLEVEEKCALMEQVAHQTIVMQFILELAKSLKVDPRACFRQFFTKIKTADRQYMEGFNDELEAFKERVRGRAKLRIEKAMKEYEEEERKKRLGPGGLDPVEVYESLPEELQKCFDVKDVQMLQDAISKMDPTDAKYHMQRCIDSGLWVPNSKASEAKEGEEAGPGDPLLEAVPKTGDEKDVSV
modifications: phosphoserine at S13 (seen in the cryo-EM map; further sites in Table S1)
For the molecule B2, in experiment [2], the binding result is “binds”.
